Laboratory results published in patent US20140186365A1.

Experiments:
[1] = target: Mouse Serum Albumin (mouse) (UniProt P07724); assay: BLI (Octet Red), MSA on sensor tips, VH domain in solution, 1:1 fit
[2] = target: Human Serum Albumin (human) (UniProt P02768); assay: BLI (Octet Red), HSA on sensor tips, VH domain in solution, 1:1 fit
Sequence of UniProt P02768 (P02768 25-609 limits assumed): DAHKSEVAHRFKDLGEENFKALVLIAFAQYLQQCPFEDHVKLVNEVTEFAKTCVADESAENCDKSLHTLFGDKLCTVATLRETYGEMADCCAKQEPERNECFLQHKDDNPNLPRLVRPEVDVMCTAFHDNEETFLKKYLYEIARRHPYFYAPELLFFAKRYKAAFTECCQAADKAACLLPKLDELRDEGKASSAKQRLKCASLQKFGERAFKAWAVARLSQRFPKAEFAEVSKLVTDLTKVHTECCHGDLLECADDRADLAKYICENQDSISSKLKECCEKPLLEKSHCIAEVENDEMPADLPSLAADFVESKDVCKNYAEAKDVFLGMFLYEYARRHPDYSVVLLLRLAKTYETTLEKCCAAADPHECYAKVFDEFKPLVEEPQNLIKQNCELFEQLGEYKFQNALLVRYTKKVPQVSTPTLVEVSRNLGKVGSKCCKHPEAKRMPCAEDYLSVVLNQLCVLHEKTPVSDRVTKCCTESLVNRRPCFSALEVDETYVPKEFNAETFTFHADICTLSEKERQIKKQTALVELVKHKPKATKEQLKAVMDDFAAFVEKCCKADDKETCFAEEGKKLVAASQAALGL

Sequence of UniProt P07724 (P07724 25-608 limits assumed): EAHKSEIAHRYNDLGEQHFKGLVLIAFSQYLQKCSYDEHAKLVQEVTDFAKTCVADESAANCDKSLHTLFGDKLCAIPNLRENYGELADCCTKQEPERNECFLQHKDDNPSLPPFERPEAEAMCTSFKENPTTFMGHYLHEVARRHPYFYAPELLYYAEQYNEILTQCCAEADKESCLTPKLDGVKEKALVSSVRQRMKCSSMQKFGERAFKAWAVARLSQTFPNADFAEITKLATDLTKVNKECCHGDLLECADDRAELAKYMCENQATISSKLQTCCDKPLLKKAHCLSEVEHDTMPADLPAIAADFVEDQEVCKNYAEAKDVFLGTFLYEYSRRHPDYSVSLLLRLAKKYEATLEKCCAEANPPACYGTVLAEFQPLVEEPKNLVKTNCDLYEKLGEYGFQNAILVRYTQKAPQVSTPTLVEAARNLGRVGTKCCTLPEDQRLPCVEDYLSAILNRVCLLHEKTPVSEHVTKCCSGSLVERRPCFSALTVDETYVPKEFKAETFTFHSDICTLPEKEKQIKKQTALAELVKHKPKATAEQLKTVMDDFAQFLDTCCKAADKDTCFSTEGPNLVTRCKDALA

B1: VH-3B11 (protein)
VH: EVQLVQSGAEVKKPGESLKISCKGSGYSFTSYWIGWVRQMPGKGLEWMGIVYPGDSDTRYSPSFQGQVTISAGKSISTAYLQWSSLKASDTAMYYCARPSMGATTWISAFDIWGQGTTVTVSSSASGAGS
In the case of B1, the Kd [1] is reported as 9.61 nM, the koff [1] is reported as 7.88e-05 s⁻¹ and the kon [1] is reported as 8200 M⁻¹ s⁻¹. The Kd [2] was 18.1 nM, the koff [2] was 0.000126 s⁻¹ and the kon [2] was 6980 M⁻¹ s⁻¹.

B2: VH-3C2 (protein)
VH: QVQLQQSGPGLVKPSQTLSLTCAISGDSVSSKSAAWNWIRQSPSRGLEWLGRTYYRSKWYNDYVVSLRSRITVSPDTSKNQFSLQLNSVTPEDTAMYYCARTRGHIDLWGRGTLVTVSSSASGAGS
Binder B2 has a Kd [1] of 31.8 nM, a koff [1] of 0.000218 s⁻¹ and a kon [1] of 6870 M⁻¹ s⁻¹. It also gave a Kd [2] of 23.8 nM, a koff [2] of 0.000155 s⁻¹ and a kon [2] of 6500 M⁻¹ s⁻¹.

B3: VH-4D6 (protein)
VH: EVQLVQSGAEVKKPGESLKISCKGSGYSFTSYWIGWVRQMPGKGLEWMGIIYPGDSDTRYSPSFQGQVTISADKSISTAYLQWSSLKASDTAMYYCARLDCSGGSCYYYYYGMDVWGQGTTVTVSSSASGAGS
For B3, the Kd [1] was 12.6 nM, the koff [1] was 0.000105 s⁻¹ and the kon [1] was 8340 M⁻¹ s⁻¹. For the same binder, the Kd [2] was 13.3 nM, the koff [2] was 0.000141 s⁻¹ and the kon [2] was 10600 M⁻¹ s⁻¹.

B4: VH-3E11 (protein)
VH: QVQLQQSGPGLVKPSQTLSLTCAISGDSVSGNSAAWNWIRQSPSRGLEWLGRTYYRSKWYIGYAASLQSRLAINADTSKNQLSLRLSSVTPEDTAVYYCVGRHYSGHSGAFDTWGHGTMVTVSSSASGAGS
B4 was tested, and the Kd [1] was 39.3 nM, the koff [1] was 0.000226 s⁻¹ and the kon [1] was 5750 M⁻¹ s⁻¹. The Kd [2] was 23.6 nM, the koff [2] was 0.000133 s⁻¹ and the kon [2] was 5630 M⁻¹ s⁻¹.

B5: VH-1C5 (protein)
VH: QVQLQQSGPGLVKPSQTLSLTCAISGDSVSSNSAAWNWIRQSPSRGLEWLGRTYYRSKWYNDYAVSVKSRITINPDTSKNQFSLQLNSVTPEDTAVYYCARTPSTGTLDCWGRGTLVTVSSSASGAGS
B5 showed a Kd [1] of 6.32 nM, a koff [1] of 5.42e-05 s⁻¹ and a kon [1] of 8570 M⁻¹ s⁻¹. For the same binder, the Kd [2] was 18.2 nM, the koff [2] was 9.58e-05 s⁻¹ and the kon [2] was 5260 M⁻¹ s⁻¹.
